Measured values: patent US9187567 (PARKINSON S INSTITUTE, dated 2015)

Columns and labels:
Experiment in all cases: 14-3-3 overlay (far-western) assay
[1] = molecular target: T1, GFP tagged, full length LRRK2 Ser910Ala (human, UniProt Q5S007 1-2527)
T1 construct: mature; also called S910A; not shown: GFP tag, amino-terminal

[2] = molecular target: T2, GFP tagged, full length LRRK2 Ser935Ala (human, UniProt Q5S007 1-2527)
T2 construct: mature; also called S935A; not shown: GFP tag, amino-terminal

[3] = molecular target: T3, GFP tagged, full length LRRK2 Ser955Ala (human, UniProt Q5S007 1-2527)
T3 construct: mature; also called S955A; GFP-LRRK2-S955A; not shown: GFP tag, amino-terminal

[4] = molecular target: T4, GFP tagged, full length LRRK2 Ser973Ala (human, UniProt Q5S007 1-2527)
T4 construct: mature; also called S973A; GFP-LRRK2-S973A; not shown: GFP tag, amino-terminal

[5] = molecular target: T5, GFP tagged, full length LRRK2 I2020T (human, UniProt Q5S007 1-2527)
T5 construct: mature; also called 12020T (so in the source); not shown: GFP tag, amino-terminal

[6] = molecular target: T6, GFP tagged, full length LRRK2 from cells treated with 1 µM LRRK2-IN1 for 90 minutes (human, UniProt Q5S007 1-2527, Serines 910, 935, 955 and 973 dephosphorylated by LRRK2-IN1 treatment of the cells)
T6 construct: mature; Same polypeptide as m10; It differs only in phosphorylation state; also called LRRK2-IN1 treated LRRK2; not shown: GFP tag, amino-terminal

Measured: binding result

T4 sequence (Q5S007 whole entry S973A): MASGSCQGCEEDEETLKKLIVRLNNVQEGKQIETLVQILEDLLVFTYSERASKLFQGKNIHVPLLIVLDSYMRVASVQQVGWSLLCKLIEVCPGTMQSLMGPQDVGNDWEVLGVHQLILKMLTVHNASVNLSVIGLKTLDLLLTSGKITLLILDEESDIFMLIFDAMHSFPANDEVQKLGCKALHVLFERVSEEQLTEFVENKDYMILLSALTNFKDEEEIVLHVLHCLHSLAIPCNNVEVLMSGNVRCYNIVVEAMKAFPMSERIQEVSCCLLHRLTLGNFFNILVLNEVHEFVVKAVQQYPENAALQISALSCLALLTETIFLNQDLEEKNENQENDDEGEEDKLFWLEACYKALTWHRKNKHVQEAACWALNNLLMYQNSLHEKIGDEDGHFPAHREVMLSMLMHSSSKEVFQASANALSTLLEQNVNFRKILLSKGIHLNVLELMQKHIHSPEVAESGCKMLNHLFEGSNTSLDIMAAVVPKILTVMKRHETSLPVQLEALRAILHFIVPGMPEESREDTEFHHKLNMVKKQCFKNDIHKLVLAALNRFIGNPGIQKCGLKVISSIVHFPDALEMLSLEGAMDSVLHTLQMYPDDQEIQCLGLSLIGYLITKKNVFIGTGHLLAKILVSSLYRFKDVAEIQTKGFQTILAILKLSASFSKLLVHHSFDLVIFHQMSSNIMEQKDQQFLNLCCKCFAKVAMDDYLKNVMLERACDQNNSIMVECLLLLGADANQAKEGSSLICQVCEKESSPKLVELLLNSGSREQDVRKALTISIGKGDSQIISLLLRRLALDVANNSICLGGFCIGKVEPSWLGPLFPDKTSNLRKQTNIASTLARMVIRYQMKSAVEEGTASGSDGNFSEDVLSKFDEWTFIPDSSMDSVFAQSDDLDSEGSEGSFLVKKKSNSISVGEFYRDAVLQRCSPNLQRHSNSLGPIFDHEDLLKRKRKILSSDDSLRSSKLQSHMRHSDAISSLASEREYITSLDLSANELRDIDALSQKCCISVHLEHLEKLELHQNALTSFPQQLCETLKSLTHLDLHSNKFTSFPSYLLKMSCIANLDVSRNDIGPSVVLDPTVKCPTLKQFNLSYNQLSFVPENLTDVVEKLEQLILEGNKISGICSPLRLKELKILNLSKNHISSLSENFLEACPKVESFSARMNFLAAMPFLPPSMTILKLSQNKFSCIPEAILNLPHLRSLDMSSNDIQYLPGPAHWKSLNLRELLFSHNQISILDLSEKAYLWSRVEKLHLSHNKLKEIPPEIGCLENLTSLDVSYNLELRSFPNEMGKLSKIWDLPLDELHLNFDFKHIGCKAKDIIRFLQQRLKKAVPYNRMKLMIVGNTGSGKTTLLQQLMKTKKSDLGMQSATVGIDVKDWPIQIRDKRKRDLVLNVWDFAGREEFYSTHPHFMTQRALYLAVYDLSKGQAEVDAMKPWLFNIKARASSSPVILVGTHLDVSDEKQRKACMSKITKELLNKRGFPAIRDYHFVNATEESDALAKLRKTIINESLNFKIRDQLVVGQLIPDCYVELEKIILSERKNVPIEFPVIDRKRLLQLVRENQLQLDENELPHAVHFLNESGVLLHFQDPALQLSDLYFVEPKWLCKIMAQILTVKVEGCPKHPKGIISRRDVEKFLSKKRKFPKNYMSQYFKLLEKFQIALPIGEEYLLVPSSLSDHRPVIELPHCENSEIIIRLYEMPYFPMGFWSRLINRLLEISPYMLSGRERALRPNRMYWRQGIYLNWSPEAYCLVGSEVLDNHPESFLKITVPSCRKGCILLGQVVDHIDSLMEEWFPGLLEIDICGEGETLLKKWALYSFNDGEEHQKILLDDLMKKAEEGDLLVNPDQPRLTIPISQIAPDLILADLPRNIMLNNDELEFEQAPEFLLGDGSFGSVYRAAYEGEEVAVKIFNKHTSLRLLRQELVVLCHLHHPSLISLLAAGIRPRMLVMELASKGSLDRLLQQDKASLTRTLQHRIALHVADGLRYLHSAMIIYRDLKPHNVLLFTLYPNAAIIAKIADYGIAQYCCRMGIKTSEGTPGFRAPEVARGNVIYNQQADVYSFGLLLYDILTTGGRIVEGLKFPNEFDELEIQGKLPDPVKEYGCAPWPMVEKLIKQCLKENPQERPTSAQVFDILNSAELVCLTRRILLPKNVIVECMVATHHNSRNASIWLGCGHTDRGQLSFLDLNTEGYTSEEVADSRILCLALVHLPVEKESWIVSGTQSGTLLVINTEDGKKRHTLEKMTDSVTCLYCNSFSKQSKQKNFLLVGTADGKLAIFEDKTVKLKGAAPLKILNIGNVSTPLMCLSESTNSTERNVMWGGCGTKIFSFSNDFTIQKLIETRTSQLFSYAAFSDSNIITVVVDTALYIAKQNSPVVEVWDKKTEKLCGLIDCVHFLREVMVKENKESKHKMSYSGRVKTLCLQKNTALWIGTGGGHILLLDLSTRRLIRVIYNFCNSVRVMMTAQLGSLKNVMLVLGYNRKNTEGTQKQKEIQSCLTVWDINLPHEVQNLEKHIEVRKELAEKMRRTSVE
T2 sequence (Q5S007 whole entry S935A): as the sequence (Q5S007 whole entry S973A) above, with S935A, A973S counted along it
T3 sequence (Q5S007 whole entry S955A): as the sequence (Q5S007 whole entry S973A) above, with S955A, A973S counted along it
T6 sequence (Q5S007 whole entry): as the sequence (Q5S007 whole entry S973A) above, with A973S counted along it
T5 sequence (Q5S007 whole entry I2020T): as the sequence (Q5S007 whole entry S973A) above, with A973S, I2020T counted along it
T1 sequence (Q5S007 whole entry S910A): as the sequence (Q5S007 whole entry S973A) above, with S910A, A973S counted along it

B1: LiCOR Dyelight labelled 14-3-3 protein (recombinant, His tagged BMH1) (other, UniProt P29311 1-267, looked up)
chain: MSTSREDSVYLAKLAEQAERYEEMVENMKTVASSGQELSVEERNLLSVAYKNVIGARRASWRIVSSIEQKEESKEKSEHQVELICSYRSKIETELTKISDDILSVLDSHLIPSATTGESKVFYYKMKGDYHRYLAEFSSGDAREKATNASLEAYKTASEIATTELPPTHPIRLGLALNFSVFYYEIQNSPDKACHLAKQAFDDAIAELDTLSEESYKDSTLIMQLLRDNLTLWTSDMSESGQAEDQQQQQQHQQQQPPAAAEGEAPK
modifications: fluorescent dye label (LiCOR Dyelight)
notes: also called fluorescent dye labeled recombinant 14-3-3; not shown: His tag
binds: [3] | [4] | [6]
no binding: [1] | [2] | [5]
